Test results published in patent publication US20040167074A1, “Therapeutic applications of mFLINT polypeptides” (priority 1998, published 2004).
Values joined by “and” are separate entries in the source; they are usually repeats but may differ in a detail not shown here. Equal values may be shown once. “Also recorded” adds a separate entry of the source.

Legend:
[1] = system: B16 melanoma cells; experiment: B16 melanoma subcutaneous tumor growth; format: in vivo; conditions: days 4-13
Protocol: Tumor response was monitored by tumor volume measurements as determined by caliper measurements of two dimensions of the tumors on days 4, 8, 11, 17, 21, 25, 30 and 34. Tumor volume was calculated as a hemi-ellipsoid. The animals were weighed on the same schedule described above.

[2] = system: Jurkat cells; experiment: Recombinant FasL induced Jurkat cell apoptosis (Annexin V/PI, FACS); format: cell-based; conditions: Jurkat + FasL 200 ng/ml + 1 ug test agent
Protocol: One milliliter of 1×10^6 cell/ml was added into each well of 24 well tissue culture plate and treated with following reagents: soluble Fas L (200 ng), Fas L plus 1 ug mFLINT, Fas L plus 1 ug OPG2-Fc, Trail (200 ng), Trail plus 1 ug mFLINT. Cells were incubated overnight at 37° C. and then stained with Annexin V and PI.

[3] = target: T1, CD40 L (Homo sapiens, UniProt P29965); experiment: Dot blot binding of mFLINT to TNF ligands
T1 construct: purchased
T1 sequence (P29965 113-261 limits assumed): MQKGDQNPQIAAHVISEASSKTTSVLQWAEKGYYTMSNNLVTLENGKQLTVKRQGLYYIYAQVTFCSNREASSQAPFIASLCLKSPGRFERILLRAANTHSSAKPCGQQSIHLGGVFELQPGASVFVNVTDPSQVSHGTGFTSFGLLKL

[4] = system: bone marrow cells; experiment: Viable cell count of bone marrow cells from 5-FU treated mice after cytokine expansion; format: cell-based, mouse; conditions: FIG. 10; 3 days with SCF and IL-6; mFLINT 1 ug/ml, anti-FasL 1 ug/ml, FasL 0.15 ug/ml; control 3,300
Description: Following a 3 day in vitro expansion period with cytokines, viable cells are counted and used to set up a CFU assay. If mFLINT or anti-FasL antibody protects progenitor cells from apoptosis, one would expect a greater number of colonies in these groups for the CFU assay. […] The values were: control cells: 3,300; FasL-treated cells: 3,000; anti-FasL-treated cells: 4,200; mFLINT-treated cells: 4,900.

[5] = system: intact hippocampal neurons along the dorsal CA1 regions; experiment: Gerbil cerebral ischemia (carotid occlusion), hippocampal CA1 neuron count; format: in vivo; conditions: 5 min carotid occlusion; 5 ul bolus 0.63 mg/ml then 1 ul/h for 3 days intracerebral; day 5; p-0.0039 t-Test, p=0.0037 Wilcoxon
Protocol: Adult male gerbils (70 to 80 g body weight, Charles River Laboratories, Wilmington, Mass.) were anesthetized by i.p. injections of sodium pentobarbital (Nembutal) 40 mg/kg, and additional i.p. injections of 10 mg/kg when necessary to maintain a surgical plane of anesthesia. Animals were placed on a thermostatically controlled heating blanket to maintain body temperature at 37° C. The ventral surface of the neck was exposed, the fur shaved, and the skin cleaned with 2% iodine solution.
After the pre-surgical preparation, a midline incision was made, and the skin opened. The sternohyoid muscles were divided to exposed and isolate the common carotid arteries (CCA) for clamping. Sterilized aneurysm clips (blade with 0.15 mm, closing force ^˜10 gm) was secured by means of a sterilized clip applier on both left and right CCA for 5 minutes. The clamps were then removed and the patency of the arteries checked visually. The wound in the neck was closed by surgical suture. […]
On the fifth day of survival; the gerbils were sacrificed in a CO2 chamber. […] After staining with Cresyl violet, the sections were viewed under a microscope at 40× magnification for cell counter quantification of the intact hippocampal neurons along the dorsal CA1 regions (0.5 mm in length) of both hemispheres. Data were analyzed by Student t-Test and the Wilcoxon ranking test.

[6] = system: Ventricular cardiomyocytes; experiment: Hypoxia/reperfusion-induced cardiomyocyte apoptosis (nucleosome DNA ELISA)
Protocol: In particular, cardiomyocytes were incubated under hypoxia conditions for 8 hours, followed by 16 hours of culture under normal O2, which mimics the hypoxic conditions found in ischemic cardiac tissue.
Ventricular cardiomyocytes were isolated from the hearts of 1-3 day-old neonatal rats by trypsin digestion and non-myocytes were eliminated by pre-plating. Primary cultures were plated in special-coated 96-well plates in serum-free medium.
Hypoxia was induced by incubating cultures in glucose-free and oxygen-free (5% Co2 and 95% N2) for 8 hours. Reperfusion was mimicked by a 16 hour incubation in glucose-containing medium under normal oxygen conditions. At the end of this incubation, cardiomyocyte apoptosis was measured by the cytoplasmic nucleosome-associated DNA ELISA method. Test samples were incubated with mFLINT (2 μg/ml or 5 μg/ml) and control samples with Z-YVAD-fmk (50 μM), a commercial caspase inhibitor.

[7] = target: T2, FasL (Homo sapiens, UniProt P48023); experiment: BiaCore real-time biomolecular interaction analysis (surface plasmon resonance); format: binding
T2 construct: purchased Kamiya Biomedical Company
T2 sequence (P48023 130-281 limits assumed): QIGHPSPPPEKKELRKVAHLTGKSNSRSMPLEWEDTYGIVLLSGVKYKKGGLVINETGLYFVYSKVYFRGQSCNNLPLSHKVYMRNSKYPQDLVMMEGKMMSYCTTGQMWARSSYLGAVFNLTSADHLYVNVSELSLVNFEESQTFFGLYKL
Description: FLINT-Fas L binding may be confirmed and specifics of binding determined (e.g., kinetics, specificity, affinity, cooperativity, relative binding pattern, concentration) using real-time biomolecular interaction analysis. This technology confers the ability to study biomolecular interactions in real time, without labeling any of the interactants. In particular, it takes advantage of the optical phenomenon surface plasmon resonance, and detection depends on changes in the mass concentration of macromolecules at the biospecific interface. Interactions are followed in real time, so that kinetic information is readily derived. In many cases, investigations can be performed without prior purification of components.
Measurements are accomplished using a BiaCore 2000 instrument. The instrument, accompanying chips, immobilization and maintenance kits and buffers are obtained from Biacore AB, Rapsgatan 7, S-754 50 Uppsala, Sweden. FasL is obtained from Kamiya Biomedical Company, 910 Industry Drive, Seattle, Wash. 98188, Guanidine Isothiocyanate Solution from GibcoBRL, and mFLINT is prepared as in Examples 8 and 9.
Experiments using immobilized FasL loaded with a solution containing mFLINT. […] This is explained by the fact that FasL is a trimer, yet here FasL monomer was bound. Further experiments utilized bound FLINT with FasL in solution, allowing for trimer formation. […] This observations indicate that FLINT should effectively compete with Fas for FasL binding, which likely explains the therapeutic benefit observed in experiments detailed below.

B1: mFLINT: mature FLINT without leader peptide (FIG. 3), soluble TNFR superfamily member, made according to Examples 8 and 9 (protein)
chain: VAETPTYPWRDAETGERLVCAQCPPGTFVQRPCRRDSPTTCGPCPPRHYTQFWNYLERCRYCNVLCGEREEEARACHATHNRACRCRTGFFAHAGFCLEHASCPPGAGVIAPGTPSQNTQCQPCPPGTFSASSSSSEQCQPHRNCTALGLALNVPGSSSHDTLCTSCTGFPLSTRVPGAEECERAVIDFVAFQDISIKRLQRLLQALEAPEGWGPTPRAGRAALQLKLRRRLTELLGAQDGALLVRLLQALRVARMPGLERSVRERFLPVH
modifications: glycosylated
In the case of B1, the “day tumors reached a volume of 500 mm^3” value ([1]; 50 μg/injection iv once daily) is reported as 19.3 ± 0.3 days, the “day tumors reached a volume of 1000 mm^3” value ([1]; 50 μg/injection iv once daily) is reported as 23.0 ± 0.4 days and the tumor growth delay ([1]; 50 μg/injection iv once daily) is reported as 1.8 days. The “tumor volume after 20 days” value ([1]; FIG. 8, 50 μg/injection iv, control approximately 1000 mm^3) was “approximately 730 mm^3”, the “Cell apoptosis (Annexin V and PI, FACS)” value [2] was 3.32 and 4.6 and the “binding in dot blot” value [3] was “No appreciable binding”. The “bone marrow cell count” value [4] was 4,900 ×1000, the “neuronal survival (intact hippocampal CA1 neurons)” value [5] was “significant effect on neuronal survival compared to vehicle; also recorded: indistinguishable from normal controls” and the “inhibition of hypoxia-induced apoptosis” value ([6]; 10 μg/ml mFLINT, 8 hours hypoxia, 16 hours normal O2) was 90%. The “inhibition of hypoxia/reperfusion-induced apoptosis” value ([6]; mFLINT 2 μg/ml or 5 μg/ml, duplicate experiments) was “essentially complete inhibition”, the “KD for FLINT-FasL relative to immobilized-FasL experiment” value ([7]; bound FLINT with FasL in solution, allowing trimer formation) was 2 orders of magnitude better and the Kd ([7]; immobilized FasL (monomer bound), analyte in solution) was 113 nM.
